Data as given in US20240415886A1.

B1: inventive TCR specific for the mutated p53^R175H peptide in the context of HLA-A2, with murine alpha and beta constant regions, expressed from lentiviral … (TCR, V domains shown)
V domain 1: GIQVEQSPPDLILQEGANSTLRCNFSDSVNNLQWFHQNPWGQLINLFYIPSGTKQNGRLSATTVATERYSLLYISSSQTTDSGVYFCAVNQAGTALIFGKGTTLSVSS
V domain 2: EPEVTQTPSHQVTQMGQEVILRCVPISNHLYFYWYRQILGQKVEFLVSFYNNEISEKSEIFDDQFSVERPDGSNFTLKIRSTKLEDSAMYFCASMGTGDEAFFGQGTRLTVVE
B2: inventive TCR specific for the mutated p53^R175H peptide in the context of HLA-A2, with murine alpha and beta constant regions, expressed from lentiviral … (TCR)
TCR alpha: GIQVEQSPPDLILQEGANSTLRCNFSDSVNNLQWFHQNPWGQLINLFYIPSGTKQNGRLSATTVATERYSLLYISSSQTTDSGVYFCAVNQAGTALIFGKGTTLSVSSNIQNPEPAVYQLKDPRSQDSTLCLFTDFDSQINVPKTMESGTFITDKTVLDMKAMDSKSNGAIAWSNQTSFTCQDIFKETNATYPSSDVPCDATLTEKSFETDMNLNFQNLSVMGLRILLLKVAGFNLLMTLRLWSS
TCR beta: EPEVTQTPSHQVTQMGQEVILRCVPISNHLYFYWYRQILGQKVEFLVSFYNNEISEKSEIFDDQFSVERPDGSNFTLKIRSTKLEDSAMYFCASMGTGDEAFFGQGTRLTVVEDLRNVTPPKVSLFEPSKAEIANKQKATLVCLARGFFPDHVELSWWVNGKEVHSGVSTDPQAYKESNYSYCLSSRLRVSATFWHNPRNHFRCQVQFHGLSEEDKWPEGSPKPVTQNISAEAWGRADCGITSASYQQGVLSATILYEILLGKATLYAVLVSTLVVMAMVKRKNS

How the values were obtained:
[1] = target: p53^R175H/HLA-A2 tetramer labeled with PE (p53^R175H peptide … with Flex-T HLA-A*02:01 monomer, Biolegend cat #280003) (human); test: flow cytometry, PE tetramer staining of gated CD8+GFP+ TCR-transduced primary T cells
[2] = target: mutated p53^R175H peptide (…) presented by HLA-A2 on target cells (human); test: cell-based or functional assay

| Binder | percent of cells binding tetramer [1] [%] | avidity (lowest activating peptide concentration), CD8+ primary T cells against CD8-negative JRT cells [2] [fold] | percentage of CD8+CD137+ cells in the gated GFP+ cells [2] [ng/mL] | percentage of CD69+ cells in the gated GFP+ JRT cells [2] [ng/mL] |
| --- | --- | --- | --- | --- |
| B1 | 82.9 |  |  |  |
| B2 |  | 10 | 1 | 10 |
